Patent WO2007054120A1 (dated 2007)
Residue numbers refer to the chain shown, from its start. Values belong to the binder of their own block, whether it stands above or below them.

Tests used:
[1] = target: T1, recombinant fibronectin domain ED-B (His)6 (human, UniProt P02751 1266-1356); test: SPR (BIAcore), ED-B on chip, Fab in flow
T1 construct: domain: ED-B; Biotinylated ED-B was used only in pannings; also called rekombinantes ED-B; human ED-B

[2] = target: T1, recombinant fibronectin domain ED-B …; test: SPR (BIAcore), about 100 RU ED-B on chip, Fab in flow
[3] = target: T1, recombinant fibronectin domain ED-B …; test: SPR (BIAcore), ED-B on chip, Fab monomer in flow

B2: MOR03246 (Fab, V domains shown)
VH: QVQLVQSGAEVKKPGASVKVSCKASGYTFTGFYINWVRQAPGQGLEWMGWINPYSGNTRYAQKFQGRVTMTRDTSISTAYMELSSLRSEDTAVYYCARSPVYYKYDYWGQGTLVTVSS
VL: DIVLTQPPSVSGAPGQRVTISCSGSSSNIGSNTVRWYQQLPGTAPKLLIYSNNKRPSGVPDRFSGSKSGTSASLAITGLQSEDEADYYCQSWDPRSFTVFGGGTKLTVL
Kd [2]: 600 pM

B3: MOR03255 (Fab, V domains shown)
VH: QVQLVESGGGLVQPGGSLRLSCAASGFTFSSYGMHWVRQAPGKGLEWVSVISNRSSYIYYADSVKGRFTISRDNSKNTLYLQMNSLRAEDTAVYYCARNKVGFDVWGQGTLVTVSS
VL: DIALTQPASVSGSPGQSITISCTGTSSDGGGYNTVSWYQQHPGKAPKLMIYYVHKRPSGVSNRFSGSKSGNTASLTISGLQAEDEADYYCQSWDLSVHQVVFGGGTKLTVLG
Kd [2]: 30 pM

B4: MOR03258 (Fab, V domains shown)
VH: B3 VH with R54Q, S56N
VL: DIALTQPASVSGSPGQSITISCTGTSSDGGGYNTVSWYQQHPGKAPKLMIYYVHKRPSGVSNRFSGSKSGNTASLTISGLQAEDEADYYCQSWDLLAPSVVFGGGTKLTVL
Kd [2]: 40 pM

B7: MOR03245 (Fab, V domains shown)
VH: QVQLQESGPGLVKPGETLSLTCTVSGGSISSYYWSWIRQAPGKGLEWIGVIHKWGFTNYNPSLKSRVTISVDTSKNQFSLKLSSVTAADTAVYYCARFFDVWGQGTLVTVSS
VL: DIVLTQPPSVSGAPGQRVTISCSGSSSNIGSNTVRWYQQLPGTAPKLLIYSNNKRPSGVPDRFSGSKSGTSASLAITGLQSEDEADYYCWTGMSYHFVFGGGTKLTVLG
Kd [2]: ~700 pM

Further lines, results first:

Kd [1]: 2400 pM
B1: MOR03075 (Fab, V domains shown)
VH: QVQLQESGPGLVKPGETLSLTCTVSGGSISSYYWSWIRQAPGKGLEWIGIGHWGSTQYNPSLKGRVTISVDTSKNQFSLKLSSVTAEDTAVYYCARFFDVWGQGTLVTVSS
VL: DIVLTQPPSVSGAPGQRVTISCSGSSSNIGSNTVRWYQQLPGTAPKLLIYSNNKRPSGVPDRFSGSKSGTSASLAITGLQSEDEADYYCQSWDPRSFTVFGGGTKLTVLG

fold affinity enhancement against MOR02715 [1]: 15 fold | Kd [3]: 2400 pM
B5: MOR03062 (Fab, V domains shown)
VH: B3 VH with N53S, R54S, S55G
VL: B3 VL

Kd [2]: ~700 pM
B6: MOR03243 (Fab, V domains shown)
VH: B7 VH with V50E, K53R, W54G, F56Y, N58Q
VL: DIVLTQPPSVSGAPGQRVTISCSGSSSNIGSNTVRWYQQLPGTAPKLLIYSNNKRPSGVPDRFSGSKSGTSASLAITGLQSEDEADYYCQAWTRAHRYPVFGGGTKLTVLG
